Our source for the stoichiometry N values is article PMC3623905.

The target in experiment [1] is Insulin-degrading enzyme wild type (rat). Kind of experiment: SEC with static light scattering (SLS); 200 μg injected into a Superdex G-200 column, working buffer, 0.5 ml/min; 90° light scattering with UV or refractive index; calibrated with BSA.
The target of experiment [2] is Proteolytically inactive recombinant insulin-degrading enzyme with Glu111 replaced by Gln (rat). The experiment is described as above.

“And” between values parts separate entries of the source, which are not always exact repeats. Identical values can stand only once.

Turning to Insulin-degrading enzyme wild type, the stoichiometry N in experiment [1] is 4 and 2.
As for “Proteolytically inactive recombinant insulin-degrading enzyme with Glu111 replaced by Gln”, in experiment [2], the stoichiometry N was 2 and 4.

A word on the stoichiometry N: it is the number of molecules, sites or subunits per partner or assembly.
